This is an account of results in patent US20250297020A1 (ADALTA, published 2025).

Assay [1] deals with T1, human RANK-L (Receptor Activator of Nuclear factor Kappa B Ligand), recombinant (human, UniProt O14788 140-317, limits assumed).
T1 sequence (looked up): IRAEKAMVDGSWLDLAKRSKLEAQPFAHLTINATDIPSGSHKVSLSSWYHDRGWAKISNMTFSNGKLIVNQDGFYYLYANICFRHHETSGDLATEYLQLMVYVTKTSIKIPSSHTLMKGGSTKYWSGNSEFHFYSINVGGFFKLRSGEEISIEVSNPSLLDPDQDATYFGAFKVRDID
Kind of assay: cell-based or functional assay.

Assay [2] has as its target T1, human RANK-L (Receptor Activator of …). Kind of assay: SPR (Biacore), human RANK-L immobilised on the chip, ADR03 injected. As to the method:
(§1) Measurement of the kinetics of ADR03 binding to human RANK-L was carried out by immobilising human RANKL onto a research grade CMS sensor chip using standard amine coupling. Each of three surfaces is first activated for seven minutes using a 1:1 mixture of […] N-hydroxysuccinimide (NHS) and […] 1-ethyl-3-(3-dimethylaminopropyl)-carbodimide (EDC). Then, the RANK-L sample is diluted 1- to 50-fold in 10 mM sodium acetate, pH 4.0, and exposed to the activated chip surface for different lengths of time (ten seconds to two minutes) to create three different density surfaces of RANK-L. Each surface is then blocked with a seven-minute injection of 1 M ethanolamine, pH 8.2. RANK-L is diluted 100-fold and injected for different amounts of time to be captured at three different surface densities (60 RU, 45 RU, 12 RU; Response Unit (RU) is termed by Biacore and relates to target molecule per surface area) onto a streptavidin-containing sensor chip. The experiments can be performed on a Biacore® 2000 or T100 optical biosensor. ADR03 is supplied at approximately 100 μg/mL and tested in a 3-fold dilution series in Sample Running Buffer over the three RANK-L surfaces. Each of ADR03 concentrations (five, 3-fold dilutions of RANK-L-coupled sensors) is tested three times to assess reproducibility of the assay. Each test is injected at a flow rate of 100 μL/minute for 60 seconds, followed by a three-minute dissociation phase. Bound ADR03 can then be removed using a five-second pulse with sensor regeneration solution. All data is usually collected at a temperature-controlled 20° c. The kinetic responses for the ADR03 injections can be analyzed using the non-linear least squares analysis program CLAMP (Myszka, D. G. and Morton, T. A. (1998) Trends Biochem. Sci., 23: 149-150). Calculations of multivalent interactions can be determined using a model to fit the avidity of the bivalent interaction of ADR03 with RANK-L (Drake et al. (2004) Anal. Biochem., 328: 35-43; and Muller et al., (1998) Anal. Biochem. 261: 149-158).
In general terms: SPR reads the build-up and loss of mass on a sensor chip optically.

The target is the same in assay [3]. Kind of assay: SPR (Biacore) sensorgrams with fitted curves; panel headed "pAb+RANKL"; value from the column "KD" of the table drawn in the panel. As to the method: as §1, with “The experiments can be performed on a Biacore® 2000 or T100 optical biosensor. ADR03 is supplied at approximately 100 μg/mL and tested in a 3-fold dilution series in Sample Running Buffer over the three RANK-L surfaces. Each of ADR03 concentrations (five, 3-fold dilutions of RANK-L-coupled sensors) is tested three times to assess reproducibility of the assay. Each test is injected at a flow rate of 100 μL/minute for 60 seconds, followed by a three-minute dissociation phase. Bound ADR03 can then be removed using a five-second pulse with sensor regeneration solution. All data is usually collected at a temperature-controlled 20° c.” left out

Values joined by “and” are separate entries in the source; they are usually repeats but may differ in a detail not shown here. Identical values can stand only once.

The Kd is a measure of binding affinity in units of concentration. As usually defined, the koff is the rate constant with which the complex falls apart. A word on the kon: it is a measure of how fast the partners come together.

B1: ADR03 i-body (RANK-L binding i-body on the NCAM domain 1 scaffold) (designed binder)
chain: LQVDIVPSQGEISVGESKFFLCQVAGAHTVESISWFSPNGEKLTPNQQRISVVWNDDSSSTLTIYNANIDDAGIYKCVVVASARRGFGWVYPHEATVNVKIFQ
notes: I-bodies were expressed in E. coli with FLAG or penta-His tags; also called ADR3; i-body ADR03
Consider B1, for which the “IC50 of inhibition of hRANK-L-induced production of TRAP positive multinucleated cells (RAW264.7)” value in assay [1] was 100 ng/mL and 3 nM. For the same molecule, in assay [2], the Kd is 13.2 nM, the koff is 0.00029 s⁻¹ and the kon was roughly 23000 M⁻¹ s⁻¹. For the same molecule, in assay [3], the equilibrium dissociation constant (Kd) was 13.2 nM.
